In PMC4927284:

Target: mutant (M97S, F110S) EndoBAR (endophilin Bin–Amphiphysin–Rvs domain of mouse endophilinA1) (mouse)
Test: cross-linking

stoichiometry N: 2
Substance: mutant (M97S, F110S) EndoBAR (endophilin Bin–Amphiphysin–Rvs domain of mouse endophilinA1) (domain or fragment)
